As a reminder, the Kd is the concentration at which binding is half-saturated.

“And” between values parts separate entries of the source, which are not always exact repeats. Equal entries are not always repeated.

The labels stand for the following.
B2: FITC-labeled JD_(1–82) of DnaJB8 (domain or fragment, human, UniProt Q8NHS0 1-82, looked up)
chain: MANYYEVLGVQASASPEDIKKAYRKLALRWHPDKNPDNKEEAEKKFKLVSEAYEVLSDSKKRSLYDRAGCDSWRAGGGASTP
modifications: FITC (labeled with 10× FITC-maleimide; site not stated)
notes: DnaJB8, human, J-domain, residues 1-82; Same construct as m4, with the fluorescein label; also called JD_(1–82)-FITC; JD_(1–82)–FITC; source: E. coli BL-21 (DE3), purified (TALON, Superdex 200), labeled with FITC-maleimide, excess dye removed by Superdex 75

Series [1] concerns the target B2. The series can be described thus: fluorescence polarisation; 0.2 μM FITC-JD_(1–82) with a titration of Hsp70 or CTD_(170–232) (150–0 μM) in 1× PBS, 1 mM TCEP, pH 7.4; one site-specific binding fit. The note with it: both partners purified.
Another series deals with T1, human Hsp70 (HspA1A) (human, UniProt P0DMV8 1-641).
T1 construct: HspA1A (Hsp70), human; HspA1A gene cloned into pMCSG7; no tag cleavage is described; source: E. coli BL-21 (DE3), purified (TALON, HiTrap Q anion exchange, Superdex 200)
Described as above. The conditions noted are these: both partners purified.

Series [2] deals with the molecule itself. The series can be described thus: cross-linking; DnaJB8–Clover held on anti-GFP nanobody/Ni-NTA beads, 1× PBS, 57 mM ADH + 36 mM DMTMM, 1 min at 37 °C; eluate analysed by MS and western blot. A general note: A western blot detects proteins with antibodies after separation by electrophoresis.
Series [3] deals with the molecule itself. The series can be described thus: dynamic light scattering; 1.2 mg/mL in 1× PBS, 1 mM DTT, pH 7.4, room temperature, time course over about 20 h; 150 mM or 285 mM NaCl for full-length DnaJB8.

T1 sequence (P0DMV8 whole entry): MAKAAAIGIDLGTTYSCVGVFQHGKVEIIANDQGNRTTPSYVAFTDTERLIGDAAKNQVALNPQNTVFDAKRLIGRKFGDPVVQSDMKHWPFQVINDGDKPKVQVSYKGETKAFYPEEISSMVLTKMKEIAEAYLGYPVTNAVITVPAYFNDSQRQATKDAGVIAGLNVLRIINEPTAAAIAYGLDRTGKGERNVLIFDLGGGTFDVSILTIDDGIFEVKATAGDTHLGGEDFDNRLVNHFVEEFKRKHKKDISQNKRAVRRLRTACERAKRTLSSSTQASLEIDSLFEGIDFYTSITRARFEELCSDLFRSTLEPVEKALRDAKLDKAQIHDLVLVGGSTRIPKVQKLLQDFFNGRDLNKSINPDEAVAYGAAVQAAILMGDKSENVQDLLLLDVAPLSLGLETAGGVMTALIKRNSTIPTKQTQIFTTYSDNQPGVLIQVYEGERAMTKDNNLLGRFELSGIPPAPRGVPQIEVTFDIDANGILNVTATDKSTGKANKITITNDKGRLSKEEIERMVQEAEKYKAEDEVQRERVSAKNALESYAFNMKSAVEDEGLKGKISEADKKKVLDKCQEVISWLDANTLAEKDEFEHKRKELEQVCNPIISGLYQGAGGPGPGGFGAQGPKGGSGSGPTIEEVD

B1: isolated C-terminal domain of DnaJB8, CTD_(170–232) (domain or fragment, human, UniProt Q8NHS0 170-232, looked up)
chain: GGSSSGSSGFKSVMSSTEMINGHKVTTKRIVENGQERVEVEEDGQLKSVTVNGKEQLKWMDSK
notes: source: E. coli BL-21 (DE3), purified (TALON, Superdex 200)
On to B1, for which the Kd in series [1] is 4.4 µM and 6.21 µM and 4.43 µM.

With B2, the Kd with human Hsp70 (HspA1A) was determined as 0.413 ± 0.057 µM.

B3: DnaJB8–mClover3 fusion protein (natural protein, human, UniProt Q8NHS0 1-232, looked up)
chain: MANYYEVLGVQASASPEDIKKAYRKLALRWHPDKNPDNKEEAEKKFKLVSEAYEVLSDSKKRSLYDRAGCDSWRAGGGASTPYHSPFDTGYTFRNPEDIFREFFGGLDPFSFEFWDSPFNSDRGGRGHGLRGAFSAGFGEFPAFMEAFSSFNMLGCSGGSHTTFSSTSFGGSSSGSSGFKSVMSSTEMINGHKVTTKRIVENGQERVEVEEDGQLKSVTVNGKEQLKWMDSK
notes: also called DnaJB8–Clover; source: HEK293T polyclonal lentiviral cell line, isolated from lysate with His-tagged anti-GFP nanobody on Ni-NTA resin
For the molecule B3, in series [2], the binding result is “binds”.

B4: recombinant full-length DnaJB8 (wild type) (natural protein, human, UniProt Q8NHS0 1-232, looked up)
chain: MANYYEVLGVQASASPEDIKKAYRKLALRWHPDKNPDNKEEAEKKFKLVSEAYEVLSDSKKRSLYDRAGCDSWRAGGGASTPYHSPFDTGYTFRNPEDIFREFFGGLDPFSFEFWDSPFNSDRGGRGHGLRGAFSAGFGEFPAFMEAFSSFNMLGCSGGSHTTFSSTSFGGSSSGSSGFKSVMSSTEMINGHKVTTKRIVENGQERVEVEEDGQLKSVTVNGKEQLKWMDSK
notes: pET-29b; no tag removal is described; also called WT DnaJB8; source: E. coli BL-21 (DE3), purified from the insoluble fraction (8 M guanidinium HCl, Ni-NTA), dialysed, lyophilised
As to B4, the binding result in series [3] is “binds”.
